Results: paper PMC7599888

Biological target: Sulfolobus solfataricus poly(ADP-ribose) polymerase-like thermoprotein (PARPSso) (S. solfataricus)
Assay: SDS-PAGE band shift with silver staining; PARPSso (3 ug, 65 pmol) mixed with Sso7 at 1:0.5, 1:1 and 1:3 mol/mol in 10 mM Na-phosphate/10 mM EDTA pH 7.5, 80 °C for 20 min (once at 45 °C); 5-12% gradient SDS-PAGE

Chain of Sulfolobus solfataricus poly(ADP-ribose) polymerase-like thermoprotein (PARPSso) (S. solfataricus) (B3EWG9 whole entry): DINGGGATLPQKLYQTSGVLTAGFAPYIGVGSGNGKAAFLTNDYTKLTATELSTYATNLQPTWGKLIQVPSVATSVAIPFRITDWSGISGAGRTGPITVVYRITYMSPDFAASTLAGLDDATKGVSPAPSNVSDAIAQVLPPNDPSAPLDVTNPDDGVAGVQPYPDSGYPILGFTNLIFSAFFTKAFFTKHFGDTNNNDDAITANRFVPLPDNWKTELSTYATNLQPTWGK

Substance: Sso7 protein (from UniProt P39476 1-64) (natural protein)
- stoichiometry N: 3
